Data on four molecules can be found in patent US6258776A, “Calcium-regulated kinase” (priority 1997, dated 2001).

One data set has as its system PP2A. As to conditions: concentrations used in cells (okadaic acid 1 μM, cyclosporin A 1 μM); cited from earlier work.
The subject of data set [1] is protein phosphatase 1 (PP1). The conditions noted are these: concentrations used in cells; cited from earlier work.
For the next data set, the system named is HA-Ndr WT. The conditions noted are these: 1 μM, 1 h. The protocol:
COS-1 cells expressing HA-Ndr WT (as in Example 5) are treated either with solvent alone (Control) or with a panel of cell permeable protein phosphatase inhibitors. The cells are then extracted, HA-Ndr is immunoprecipitated with the anti-HA mAb 12CA5, and the kinase activity of Ndr measured as before, using the peptide substrate.

For another data set, the system named is HA-Ndr. The experiment in a line: in vitro incubation of immunoprecipitated HA-Ndr with PP2A. Format: biochemical. The conditions noted are these: PP2A plus 100 nM okadaic acid. The protocol:
In order to provide evidence that PP2A directly interacts with and thereby affects Ndr activity, HA-Ndr is immunoprecipitated from cells treated with 20 μM A23187 or with solvent alone for 5 min. In parallel, HA-Ndr is immunoprecipitated from cells treated with 1 μM okadaic acid or solvent alone ("Control") for 1 h. Each immunoprecipitate is then incubated in vitro for 1 h with either buffer alone, with purified PP2A (dimeric form consisting of catalytic subunit and 65 kDa regulatory subunit) or with PP2A plus 100 nM okadaic acid. Thereafter, the immunoprecipitates are washed and assayed for Ndr peptide kinase activity as described in Example 5.

Data set [2] concerns M960618 melanoma cells (Ndr activity). In words: W-7 effect on Ndr activity in S100B-positive melanoma cells. Format: cell-based. The conditions noted are these: Homo sapiens, 1.25 h; read-out: reduction of Ndr activity.
Data set [3] relates to S100 proteins, including S100B. As to conditions: cited from earlier work.
A further data set concerns S100B-Ndr. In words: inhibition of binding of S100B to Ndr.
For data set [4], the target named is T1, GST-Ndr (Homo sapiens, UniProt Q15208).
T1 construct: made in house
In words: Ndr autophosphorylation assay. The data set is classed as biochemical. As for the experimental part:
In immune complex kinase assays and autophosphorylation assays (see below), COS-1 cells are transfected as described above or with pECE-Ndr-K118A. After 72 h, cells are washed with ice-cold PBS and lysed in lysis buffer (20 mM Tris-HCl pH 8.0, 150 mM NaCl, 1% (v/v) NP-40, 10% (v/v) glycerol, 5 mM EDTA, 0.5 mM EGTA, 0.5 mM phenylmethyl-sulfonyl fluoride, 4 μM leupeptin, 1 mM benzamidine, 1 μM microcystin and 1 mM Na3 VO4). Lysates are centrifuged at 14,000 g for 20 min. Duplicate aliquots of supernatant (250 μg, 2.5 mg/ml) are incubated for 2 h at 0° C. with 10 μg/ml Ab^1-465. Immune complexes are precipitated by addition of 2 μl protein A-Sepharose (Pharmacia) and mixing for 1 h. The beads are then washed twice with lysis buffer, once with lysis buffer containing 1 M NaCl, with lysis buffer again, and finally twice with 20 mM Tris-HCl pH 7.5. […] After 60 min at 30° C., phosphate incorporation into the peptide is quantitated as described above.
The proteins are added together with Ca^2+ into GST-N dr peptide kinase assays. […] The increased kinase activity observed in the presence of S100A1 and S100B is not due to contaminating kinase activity, because no activity is recorded when kinase-negative GST-Ndr, containing a point mutation (Lys^118→Ala) in the ATP binding pocket, is used in place of wild-type GST-Ndr. […]

For data set [5], the target named is T1, GST-Ndr. The experiment in a line: GST-Ndr peptide kinase assay with calcium-binding proteins. Format: biochemical. As for the experimental part:
1 μg GST-Ndr WT or GST-Ndr K118A, either in solution or immobilised on glutathione-agarose beads, is assayed in a 20 μl reaction containing 20 mM Tris-HCl pH 7.5, 5 mM MgCl2, 1 mM dithiothreitol, 100 μM [γ-^32 P] […] Reactions are supplemented with either 2 mM EGTA or various concentrations of CaCl2. Bovine CaM, bovine S100B (both from Sigma) or recombinant calcium-binding proteins. After incubation at 30° C. for 60 min, aliquots of the reaction are spotted on to P81 phosphocellulose paper and counted as above.
In brief, coding regions are cloned into the PGEMEX expression vector (Promega) and resultant plasmids used to transform E. coli BL-21 LysS cells. After induction, S100 proteins are purified by ammonium sulphate precipitation followed by Ca^2+ -dependent phenyl-Sepharose chromatography.
The proteins are added together with Ca^2+ into GST-N dr peptide kinase assays. The proteins tested comprised S100A1 (S100α), S100A2 (S100L), S100A4 (CAPL), S100A6 (calcyclin) and S100B (S100β); α-parvalbumin is included as a negative control.
In order to estimate the binding affinity of S100B for Ndr, kinase assays are performed in which GST-Ndr is mixed with various concentrations of purified bovine S100B homodimer, in the presence or absence of calcium.
To determine whether activation of Ndr by S100B occurs at physiological Ca^2+ concentrations, Ndr activity is assayed with or without added S100B over a range of Ca^2+ concentrations.

For a further data set, the system named is Ndr Δ65-81. The experiment in a line: immune complex kinase assay with S100B and Ca^2+, Ndr deletion of amino acids 65-81. The data set is classed as biochemical, human. As for the experimental part:
(§1) In immune complex kinase assays and autophosphorylation assays (see below), COS-1 cells are transfected as described above or with pECE-Ndr-K118A. After 72 h, cells are washed with ice-cold PBS and lysed in lysis buffer (20 mM Tris-HCl pH 8.0, 150 mM NaCl, 1% (v/v) NP-40, 10% (v/v) glycerol, 5 mM EDTA, 0.5 mM EGTA, 0.5 mM phenylmethyl-sulfonyl fluoride, 4 μM leupeptin, 1 mM benzamidine, 1 μM microcystin and 1 mM Na3 VO4). Lysates are centrifuged at 14,000 g for 20 min. Duplicate aliquots of supernatant (250 μg, 2.5 mg/ml) are incubated for 2 h at 0° C. with 10 μg/ml Ab^1-465. Immune complexes are precipitated by addition of 2 μl protein A-Sepharose (Pharmacia) and mixing for 1 h. The beads are then washed twice with lysis buffer, once with lysis buffer containing 1 M NaCl, with lysis buffer again, and finally twice with 20 mM Tris-HCl pH 7.5. Beads are resuspended in 30 μl buffer containing 20 mM Tris-HCl pH 7.5, 10 mM MgCl2, 100 μM CaCl2, 1 mM dithiothreitol, 100 μM [γ-^32 P] ATP (0.5 μCi/μls), 1 mM Ndr substrate peptide ([…], SEQ. ID. No. 1), 1 μM cAMP-dependent protein kinase inhibitor peptide (PKI; purchased from Bachem, Bubendorf, Swit zerland), 4 μM leupeptin, 1 mM benzamidine, 1 μM microcystin and, in some assays, 20 μM bovine S100B. After 60 min at 30° C., phosphate incorporation into the peptide is quantitated as described above. […]

The subject of another data set is Ndr. The experiment in a line: Ndr activity in cell lines with and without S100B expression. The data set is classed as cell-based, human. The conditions noted are these: p<0.05, two-tailed Students' t test. As for the experimental part:
COS cells are transfected with pECE-Ndr or with empty vector (pECE). 20 μg of these extracts are immunoprecipitated with anti-Ndr (which has been covalently cross-linked to protein A-Sepharose using dimethyl pimelimidate). 400 μg of extract from HeLa cells is immunoprecipitated in parallel. The immunoprecipitates are separated by SDS-PAGE and then immunoblotted using biotinylated anti-Ndr and streptavidin-peroxidase. […] A band of ~53 kDa is also present in HeLa and COS-1 cells and probably represents a proteolytic fragment of full-length Ndr.
Using the method described above, the 12 cell lines are analysed for Ndr abundance. The amount of Ndr (in ng per 400 μg cell extract) is quantitated by densitometry of the blots, and comparison with blots containing known amounts of GST-Ndr. The same cell lines are also assayed for the presence or absence of S100B, by immunoprecipitation of cell extracts with anti-S100B, followed by immunoblotting of the precipitates.

Data set [6] has as its target T1, GST-Ndr. In words: preincubation of immobilised GST-Ndr followed by peptide kinase assay. Format: biochemical. As for the experimental part: Activation of Ndr by S100B appears to be independent of kinase autophosphorylation. However, increased autophosphorylation is observed: GST-Ndr is immobilised on agarose and preincubated with or without Ca^2+ -S100B, in the presence or absence of Mg-ATP (to either allow or not allow autophosphorylation). The agarose beads are then washed and assayed for Ndr activity as set out herein with radiolabelled ATP and peptide substrate, and in the presence or absence of Ca^2+ -S100B. Preincubation of GST-Ndr with Mg-ATP alone increases its peptide kinase activity, showing that autophosphorylation activates Ndr. […] Preincubation with Ca^2+ S100B alone has no effect, because activation by Ca^2+ -S100B in the preincubation step is mediated by Ndr autophosphorylation.
Ca^2+ -S100B increases the rate Ndr autophosphorylation by 2.5-fold, and it increases autophosphorylation-dependent Ndr activation by 2-fold. However, the total activation of Ndr by Ca^2+ -S100B is larger than this (5- to 10-fold). Thus, the increased autophosphorylation of Ndr caused by Ca^2+ -S100B is not by itself sufficient to account for Ndr activation. In addition, Ca^2+ -S100B probably stimulates Ndr kinase activity directly, in an autophosphorylation-independent manner.

In another data set the test system is wild-type Ndr. The experiment in a line: immune complex kinase assay with S100B and Ca^2+, wild-type Ndr. Format: biochemical, human. As to conditions: Ca^2+ -S100B. The protocol:
as §1

For the next data set, the system named is Ndr Δ1-84. The experiment in a line: immune complex kinase assay with S100B and Ca^2+, Ndr lacking amino terminal domain. Format: biochemical, human. As for the experimental part: as §1

T1 sequence (Q15208 whole entry): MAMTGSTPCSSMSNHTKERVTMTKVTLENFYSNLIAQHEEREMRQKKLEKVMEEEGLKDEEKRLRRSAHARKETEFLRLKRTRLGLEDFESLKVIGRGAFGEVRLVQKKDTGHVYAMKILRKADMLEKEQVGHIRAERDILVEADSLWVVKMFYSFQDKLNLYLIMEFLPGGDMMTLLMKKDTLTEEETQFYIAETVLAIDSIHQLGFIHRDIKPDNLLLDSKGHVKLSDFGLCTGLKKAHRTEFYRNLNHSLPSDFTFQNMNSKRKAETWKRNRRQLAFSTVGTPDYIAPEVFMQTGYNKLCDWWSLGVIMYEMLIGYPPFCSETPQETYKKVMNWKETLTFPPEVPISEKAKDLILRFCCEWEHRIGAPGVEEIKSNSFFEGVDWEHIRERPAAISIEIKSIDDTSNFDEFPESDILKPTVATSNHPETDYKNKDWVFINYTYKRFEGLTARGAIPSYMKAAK

Take `C=C1[C@@H](O)[C@@H]2O[C@]3(CC[C@H](/C=C/[C@@H](C)[C@@H]4CC(C)=C[C@@]5(O[C@H](C[C@@](C)(O)C(=O)O)CC[C@H]5O)O4)O3)CC[C@H]2O[C@@H]1[C@@H](O)C[C@H](C)[C@H]1O[C@@]2(CCCCO2)CC[C@H]1C` [okadaic acid]: the “inhibition of intracellular PP2A” value in the data set with PP2A is reported as “completely inhibits intracellular PP2A”. Besides, in data set [1], the “effect on PP1” value is “does not affect protein phosphatase 1 (PP1)”. The “activation of Ndr” value in the data set with HA-Ndr WT is on record as ~ 8 fold. Also, the “prevention of inactivation of HA-Ndr by PP2A” value in the data set with HA-Ndr is on record as “inactivation is prevented”.
Regarding `NCCCCCCNS(=O)(=O)c1cccc2c(Cl)cccc12` [W-7], in data set [2], the inhibition at 50 µM was approximately 80%. The “binding to S100 proteins” value in [3] was “binds to several S100 proteins, including S100B, in a Ca^2+ -dependent manner”.
Consider “KRLRRSAHARKETEFLRLKRTRLGL [SEQ ID No.32]”, for which the “inhibition of binding of S100B to Ndr” value in the data set with S100B-Ndr is on record as “effectively inhibit binding of S100B to Ndr”.

B1: S100B: EF hand calcium-binding protein of the S100 family; bovine S100B homodimer or recombinant (protein, UniProt P02638 2-92, looked up)
Protein S100-B: SELEKAVVALIDVFHQYSGREGDKHKLKKSELKELINNELSHFLEEIKEQEVVDKVMETLDSDGDGECDFQEFMAFVAMITTACHEFFEHE
Regarding B1, in the data set with GST-Ndr [4], the Ndr autophosphorylation entry was “stimulated Ndr autophosphorylation”. Also, the “increase in rate of Ndr autophosphorylation” value with GST-Ndr [4] (Ca^2+ -S100B) is listed as 2.5 fold. Moreover, the “maximal activation of Ndr” value with GST-Ndr [5] (2 mM EGTA, without calcium) is reported as “much lower”; with GST-Ndr [5] (presence of calcium, bovine S100B homodimer) it was ~ 7 fold. Moreover, the “activation of Ndr in the absence of calcium” value in the data set with GST-Ndr [5] (absence of calcium) is given as “partial activation of Ndr in the absence of calcium”. The “increase in Ndr kinase activity” value with GST-Ndr [5] (added together with Ca^2+, 60 min, 30° C.) is on record as 5-6 fold. Moreover, the “sensitivity to S100B” value with Ndr Δ65-81 is listed as “ablated its sensitivity to S100B”. Besides, the “Ndr average specific activity, S100B-positive versus S100B-negative cell lines” value in the data set with Ndr is given as ~ 2 fold. The “increase in autophosphorylation-dependent Ndr activation” value in the data set with GST-Ndr [6] (Ca^2+ -S100B) came out at 2 fold. The “peptide kinase activity after preincubation” value with GST-Ndr [6] (preincubation with Ca^2+ -S100B alone) is recorded as “no effect”; in the data set with GST-Ndr [6] (preincubation with Mg-ATP and Ca^2+ -S100B) it was “even greater autoactivation of the peptide kinase activity”. Further, the “degree of activation of immunoprecipitated Ndr” value in the data set with wild-type Ndr is ~ 2 fold. Also, the “response to S100B” value in the data set on Ndr Δ1-84 is on record as “failed to respond to S100B”.
